Results reported in patent US20090036365A1.

Molecular target: human plasmin (human) (UniProt P00747)
Assay: display phage binding to immobilised protease; this row is the reference taken as unit

Sequence of human plasmin (human) (P00747 97-810 limits assumed): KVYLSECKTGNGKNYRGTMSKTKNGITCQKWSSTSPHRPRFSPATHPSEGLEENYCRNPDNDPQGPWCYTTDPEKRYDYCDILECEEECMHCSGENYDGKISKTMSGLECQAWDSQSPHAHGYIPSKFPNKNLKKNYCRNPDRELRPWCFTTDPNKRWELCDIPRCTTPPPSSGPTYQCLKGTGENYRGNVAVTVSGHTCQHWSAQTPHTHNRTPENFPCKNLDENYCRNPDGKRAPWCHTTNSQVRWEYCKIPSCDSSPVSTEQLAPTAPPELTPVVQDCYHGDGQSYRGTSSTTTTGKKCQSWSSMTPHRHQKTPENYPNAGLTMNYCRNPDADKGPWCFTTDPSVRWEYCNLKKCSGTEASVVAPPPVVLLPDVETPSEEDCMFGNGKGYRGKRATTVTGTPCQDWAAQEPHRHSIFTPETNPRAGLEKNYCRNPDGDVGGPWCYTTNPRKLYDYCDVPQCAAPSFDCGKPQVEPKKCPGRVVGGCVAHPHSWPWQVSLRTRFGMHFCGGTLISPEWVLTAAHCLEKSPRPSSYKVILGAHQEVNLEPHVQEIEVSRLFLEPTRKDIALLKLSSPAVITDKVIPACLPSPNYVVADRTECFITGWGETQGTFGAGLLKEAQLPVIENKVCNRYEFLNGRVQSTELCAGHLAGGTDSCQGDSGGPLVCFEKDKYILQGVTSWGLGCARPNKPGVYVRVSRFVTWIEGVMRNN

relative binding (LACI-K1 phage = unit) (fold of LACI-K1 phage): 1
Substance: LACI-K1 (first Kunitz domain of human lipoprotein-associated coagulation inhibitor) (from UniProt P10646 50-107)
